Values quoted from earlier work in patent US8443799B2, “Dry powder inhalation system for transpulmonary administration” (Otsuka Pharmaceutical Co., Ltd., priority 2001, dated 2013).

Details: disclosure in WO 95/31479

## interferon
  deactivation during the spray drying process: about 25%
